# Numbering of substitutions follows the chain as printed.
# B1: Ab6 (antibody, V domains shown)
# VH: QVQLQQPGAELVMPGSSVKLSCKASGYTFTTYWMHWVKQRPGQGLEWIGEIDPSDSYSNYNQKFKDKATLTVDKSSSTAYMQLSSLTSEDSAVYYCARNGGLGPAWFSYWGQGTLVTVSA
# VL: DIVMTQSQKFMSTTVGDRVSITCKASQYVGTAVAWYQQKPGQSPKLLIYSASNRYTGVPDRFTDSGSGTDFTLTISNLQSEDLADYFCQQYSSYPWTFGGGTKLEIK
# notes: murine monoclonal, isotype G1; also called murine Ab6
# B2: Ab5 (antibody, V domains shown)
# VH: QVQLQQPGAELVRPGTSVKLSCKASGYTFTSFWMHWVKQRPGQGLEWIGVIDPSDTYTNYNQKFKGKATLTVDTSSSTAYMQLSSLTSEDSAVYYCARGDYSNWFTYWGQGTLVTVSA
# VL: DVVMTQTPLSLPVSLGDQASISCRSSQRLVHSNGNTYLHWYLQKPGQSPKLLIYKVSNRFSGVPDRFSGSGSGTDFTLKISRVEAEDLGVYFCSQSTHVPWTFGGGTKLEIK
# notes: murine monoclonal, isotype G2a; also called murine Ab5
# B3: Ab13 (antibody, V domains shown)
# VH: B2 VH with T56S, Y57H, D73N, Q82H
# VL: B2 VL with L9F, R28S, G89E, V90L
# notes: murine monoclonal, isotype G2a; also called murine Ab13
# B4: Ab7 (antibody, V domains shown)
# VH: QVQLQQPGAELVMPGTSVKLSCKASGYTFTSYWIHWVKQRPGQGLEWIGEIDPSDSYTNYNQKFKGKATLTVDRSSSTAYMQLSSLTSEDSAVYYCGRSFFTNWFAYWGQGTLVTVSA
# VL: B2 VL with R28S, S81N, W101F, G105S
# notes: murine monoclonal, isotype G1; also called murine Ab7
# B5: LFA102 (antibody, human IgG1, kappa, V domains shown)
# VH: EVQLVESGGGLVQPGGSLRLSCAVSGFTFSSYGMSWVRQAPGKRLEWVATVSSGGTYTYYPDSVKGRFTISRDNSKNTLYLQMNSLRAEDTAMYYCARHRGNYYATYYYAMDYWGQGTLVTVSS
# VL: DIVLTQSPDSLAVSLGERATINCKASKSVSTSGYTYMHWYQQKPGQPPKLLIYLASNRESGVPDRFSGSGSGTDFTLTISPVQAEDVATYYCQHSGELPPSFGQGTKLEIKR
# notes: humanized IgG1 kappa comparator (WO 2008022295)
# B6: Ab10 (antibody, V domains shown)
# VH: EVQLHQSGPELVKPGASVKISCKASGYTFTDYNMHWMKQSHGKSLEWIGYFYPYNGGTGYNQEFKNKATLTVDISSSTAYMELRRLTSEDSAVYYCARGGWGIYYAMDYWGQGTSVTVSS
# VL: DIQMTQSPASLSASVGETVTITCRASENIYSYLTWYQQKQGKSPQLLVYNAKTLAEGVPSRFSGSGSGTQFSLKINSLQPEDFGSYHCQHHSVTPLTFGAGTKLELK
# notes: murine monoclonal, isotype G2a; also called murine Ab10
# B7: chAb5 (antibody, human IgG1, kappa, V domains shown)
# VH: B2 VH
# VL: DVVMTQTPLSLPVSLGDQASISCRSSQRLVHSNGNTYLHWYLQKPGQSPKLLIYKVSNRFSGVPDRFSGSGSGTDFTLKISRVEAEDLGVYFCSQSTHVPWTFGGGTKLEIKT
# notes: chimeric, murine variable and human G1/kappa constant regions
# B8: chAb7 (antibody, human IgG1, kappa, V domains shown)
# VH: B4 VH
# VL: B7 VL with R28S, S81N, W101F, G105S
# notes: as for B7
# B9: Ab12 (antibody, V domains shown)
# VH: DVQLQESGPGLVKPSQSLSLTCTVTGYSITSDYAWNWIRQFPGNKLEWMGYIGYSGRTSFNPSLKSRISITRDTSKNQFFLQLNSVTTEDTATYYCARGGFAMDYWGQGTSVTVSS
# VL: QIVLTQSPGIMSASPGEKVTMTCSASSSVTYMYWYQQKPRSSPKPWIYLTSNLASGVPARFSGSGSGTSYSLTISSMEAEDGATYYCQQWSSTPPLTFGGGTKLELN
# notes: murine monoclonal, isotype G2a; reported as PRLR agonist; also called murine Ab12
# B10: Ab30 (antibody, human IgG1, kappa, V domains shown)
# VH: EVQLVQSGAEVKKPGSSVKVSCKASGYTFTSFWMHWVRQAPGQGLEWIGVIDPSDTYTNYNQKFKGRATLTVDESSSTAYMELSSLRSEDTAVYYCARGDYSNWFTYWGQGTLVTVSS
# VL: B7 VL with P12S, S14T, L15P, D17Q, Q18P, K50Q, L88V, L109V, T113R
# notes: humanized from Ab5; G1; also called Ab2 HC.1a and Ab2 LC.1a
# B11: chAb8 (antibody, human IgG1, kappa, V domains shown)
# VH: EVQLQQSGPELVKPGASVKISCKASGYTFTDYNIHWVKQSHGKSLEWIGYIYPNNDGTGYNQKFKSKATLTVDNSSSTAYMEVRSLTSEDSAVYYCARGDGNYVGDMDYWGQGTSVTVSS
# VL: DIQMTQSPASLSASVGETVTITCRASENIYSYLAWYQQKQGKPPQLLVYNAKTLAEGVPSRFSGGGSGTQFSLKINSLQPEDFGSYYCQHHYATPFTFGSGTKLEIKT
# notes: as for B7
# Biological target: T1, rat PRLR on Nb2-11 rat lymphoma cells (rat, UniProt P05710 20-610)
# T1 sequence (looked up): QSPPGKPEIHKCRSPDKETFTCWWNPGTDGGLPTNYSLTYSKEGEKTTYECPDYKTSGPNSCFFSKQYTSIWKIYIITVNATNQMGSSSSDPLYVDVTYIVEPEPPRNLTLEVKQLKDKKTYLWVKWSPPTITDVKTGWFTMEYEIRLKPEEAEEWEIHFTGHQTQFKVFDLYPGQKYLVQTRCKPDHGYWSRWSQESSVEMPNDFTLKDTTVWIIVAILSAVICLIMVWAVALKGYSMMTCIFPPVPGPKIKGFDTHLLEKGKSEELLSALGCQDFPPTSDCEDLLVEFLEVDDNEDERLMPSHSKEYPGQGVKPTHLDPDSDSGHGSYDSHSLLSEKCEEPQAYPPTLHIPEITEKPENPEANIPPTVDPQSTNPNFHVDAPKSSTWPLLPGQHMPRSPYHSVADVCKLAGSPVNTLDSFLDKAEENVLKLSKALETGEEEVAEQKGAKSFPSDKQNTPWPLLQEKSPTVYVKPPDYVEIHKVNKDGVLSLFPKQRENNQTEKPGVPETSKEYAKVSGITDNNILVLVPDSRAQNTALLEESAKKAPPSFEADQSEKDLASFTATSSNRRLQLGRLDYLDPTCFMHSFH
# Experiment: cell-based or functional assay
row,Binder,Nb2-11 proliferation IC50
1,B1,> 30 µg/mL
2,B2,0.91 µg/mL
3,B3,7.56 µg/mL
4,B4,4.42 µg/mL
5,B5,0.93 µg/mL
6,B6,> 30 µg/mL
7,B7,0.69 µg/mL
8,B8,16.8 µg/mL

# Biological target: T2, human PRLR on cells (human, UniProt P16471 25-622)
# T2 construct: Endogenous on T47D cells, transfected in Baf3-hPRLR cells; also called hPRLR; T47D cells
# T2 sequence: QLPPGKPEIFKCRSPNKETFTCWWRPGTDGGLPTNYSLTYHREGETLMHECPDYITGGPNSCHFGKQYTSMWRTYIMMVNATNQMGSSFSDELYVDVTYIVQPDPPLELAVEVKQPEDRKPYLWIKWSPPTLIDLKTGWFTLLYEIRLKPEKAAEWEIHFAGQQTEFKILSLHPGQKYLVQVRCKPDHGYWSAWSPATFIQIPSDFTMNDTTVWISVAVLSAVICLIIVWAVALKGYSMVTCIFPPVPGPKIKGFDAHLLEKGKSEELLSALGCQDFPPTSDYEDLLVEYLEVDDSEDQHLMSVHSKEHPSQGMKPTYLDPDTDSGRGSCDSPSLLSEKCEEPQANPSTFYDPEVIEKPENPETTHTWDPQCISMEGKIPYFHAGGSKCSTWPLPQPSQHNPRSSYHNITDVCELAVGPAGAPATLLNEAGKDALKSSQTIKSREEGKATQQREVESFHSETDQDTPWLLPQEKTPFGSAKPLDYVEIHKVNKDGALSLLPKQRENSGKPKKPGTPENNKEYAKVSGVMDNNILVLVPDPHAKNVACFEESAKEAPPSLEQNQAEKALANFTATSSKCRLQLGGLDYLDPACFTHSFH
# Experiment: FACS T47D 10 ug/mL
row,Binder,FACS GeoMean-neg
1,B1,1840
2,B2,1610
3,B3,1500
4,B4,2380
5,B5,1640
6,B6,2720
7,B9,1680

# Biological target: T3, mouse PRLR ECD-Fc fusion protein (mouse, UniProt Q08501 20-229)
# T3 construct: extracellular domain; not shown: Fc region (captured by goat anti-human Fc)
# T3 sequence (looked up): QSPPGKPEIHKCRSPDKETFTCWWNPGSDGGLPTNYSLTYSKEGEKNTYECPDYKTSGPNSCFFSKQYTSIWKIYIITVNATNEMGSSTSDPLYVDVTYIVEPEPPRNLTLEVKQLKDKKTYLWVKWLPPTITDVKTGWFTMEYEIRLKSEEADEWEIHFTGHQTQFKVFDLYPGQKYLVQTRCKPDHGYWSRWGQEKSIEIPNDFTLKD
# Experiment: ELISA on ECD
# Outline: (§1)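 EC50 values derive from fitted binding curves of antibody serial dilutions (1 h) on captured PRLR. Detection used an HRP-conjugated secondary (1 h), TMB development for 3–5 min, an H₂SO₄ stop and a 450 nm read, with all steps in Tween/PBS pH 7.4 buffer.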
row,Binder,EC50
1,B2,0.098 nM
2,B3,0.088 nM
3,B10,0.198 nM
4,B4,0.143 nM
5,B6,1.14 nM
6,B9,0.121 nM
7,B7,0.12 nM
8,B11,1.02 nM
9,B8,0.184 nM

# Biological target: T4, rat PRLR ECD-Fc fusion protein (rat, UniProt P05710 20-229)
# T4 construct: extracellular domain; not shown: Fc region (captured by goat anti-human Fc)
# T4 sequence (looked up): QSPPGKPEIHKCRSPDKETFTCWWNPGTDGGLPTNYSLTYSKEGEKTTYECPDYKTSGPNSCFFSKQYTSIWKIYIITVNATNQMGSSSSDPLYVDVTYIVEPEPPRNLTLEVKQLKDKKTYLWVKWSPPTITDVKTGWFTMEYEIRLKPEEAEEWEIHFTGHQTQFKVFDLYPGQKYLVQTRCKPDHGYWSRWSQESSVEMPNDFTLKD
# Experiment: ELISA on ECD
# Outline: as §1
row,Binder,EC50
1,B2,0.08 nM
2,B3,0.085 nM
3,B10,0.423 nM
4,B4,0.135 nM
5,B5,0.157 nM
6,B6,0.234 nM
7,B9,0.116 nM
8,B7,0.147 nM
9,B11,0.305 nM
10,B8,0.157 nM

# Biological target: T5, mouse PRLR on Baf3-mPRLR cells (mouse, UniProt Q08501 20-608)
# T5 construct: whole, on cells
# T5 sequence (looked up): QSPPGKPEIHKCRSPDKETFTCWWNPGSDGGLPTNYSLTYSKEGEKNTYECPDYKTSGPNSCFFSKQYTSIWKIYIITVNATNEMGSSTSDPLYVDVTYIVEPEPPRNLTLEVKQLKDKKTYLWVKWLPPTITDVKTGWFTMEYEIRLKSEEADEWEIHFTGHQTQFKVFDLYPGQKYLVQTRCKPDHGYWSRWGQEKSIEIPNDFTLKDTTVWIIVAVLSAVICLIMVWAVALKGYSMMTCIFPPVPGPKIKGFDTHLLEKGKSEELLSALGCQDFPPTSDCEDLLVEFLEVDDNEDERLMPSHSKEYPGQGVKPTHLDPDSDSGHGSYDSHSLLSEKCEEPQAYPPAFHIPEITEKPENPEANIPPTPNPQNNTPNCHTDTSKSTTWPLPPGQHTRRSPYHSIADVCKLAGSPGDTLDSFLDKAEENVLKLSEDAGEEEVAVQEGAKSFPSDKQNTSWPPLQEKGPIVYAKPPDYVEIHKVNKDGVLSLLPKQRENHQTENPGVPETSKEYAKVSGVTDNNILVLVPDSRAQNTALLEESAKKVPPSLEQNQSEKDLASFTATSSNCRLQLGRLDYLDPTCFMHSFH
# Experiment: FACS Baf3-mPRLR 10 ug/mL
# Description: Nb2-11 and Baf3-xPRLR cells were resuspended in FACS buffer (PBS+1% FBS) at 2 millions cells/mL. Cells were added to round bottom 96-well plate (100 uL/well) and treated with testing PRLR antibodies for 1 hr at 4 C. Cells were then washed with FACS buffer twice and incubated with 2nd antibody conjugated to ALEXA488 (Invitrogen) for 1 hr at 4 C. After two washes in FACS buffer, cells were resuspended in 1% formaldehyde in PBS. Cells were analyzed using LSRII flowcytometer.
row,Binder,FACS GeoMean-neg
1,B1,0
2,B2,166
3,B3,143
4,B4,27
5,B5,4
6,B6,49
7,B9,90
